Consider two substances from patent US20120171195A1.

In one test the target is HLA-B*1401 (human) (UniProt P01889). Kind of test: Luminex beads; MAb 1/200; PBS only.
A further test concerns the target HLA-B*4006 (human) (UniProt P01889). Kind of test: Luminex beads; MAb 1/200; PBS only.
A further test concerns the target HLA-B*4501 (human). Kind of test: Luminex beads; MAb 1/200; PBS only.
The target of test [1] is HLA-B*5801 (human). Kind of test: Luminex beads; MAb 1/200; PBS only.
Another test concerns the target HLA-Cw*0202 (human). Kind of test: Luminex beads; MAb 1/200; PBS only.
In another test the target is HLA-Cw*0501 (human). Kind of test: Luminex beads; MAb 1/200; PBS only.
In a further test the target is HLA-Cw*1701 (human). Description: Luminex beads; MAb 1/200; PBS only.
In a further test the target is HLA-Cw*1802 (human) (UniProt P10321). Description: Luminex beads; MAb 1/200; PBS only.
A further test addresses HLA-B*1402 (human). Description: Luminex beads; MAb 1/1600; competitor IgG-free serum.
The next test concerns the target HLA-B*1502 (human). The description is as above.
A further test has as its target HLA-B*1511 (human) (UniProt P01889). Described as above.
For another test, the target named is HLA-B*2708 (human) (UniProt P01889). The test is described as above.
In test [2] the target is HLA-B*5801 (human). The test is described as above.
In another test the target is HLA-Cw*0302 (human) (UniProt P10321). The description is as above.
For the next test, the target named is HLA-Cw*0702 (human) (UniProt P10321). The test is described as above.
A further test addresses HLA-Cw*1402 (human) (UniProt P10321). The description is as above.
Another test has as its target HLA-Cw*1502 (human). Described as above.
In a further test the target is HLA-A*2403 (A24) (human). Kind of test: Luminex single-antigen beads; MEM-E/02 1/600; serum Mi127 1/100.
A further test addresses HLA-A*2501 (A25) (human). The description is as above.
The next test concerns the target HLA-A*2901 (A29) (human) (UniProt P04439). Described as above.
A further test concerns the target HLA-A*3002 (A30) (human) (UniProt P04439). The description is as above.
For the next test, the target named is HLA-A*3201 (A32) (human). Described as above.
A further test deals with HLA-A*3301 (A33) (human). The description is as above.
The target in a further test is HLA-B*0801 (B8) (human) (UniProt P01889). Described as above.
For another test, the target named is HLA-B*1301 (B13) (human). Described as above.
A further test addresses HLA-B*1513 (B77) (human). The description is as above.
The target of the next test is HLA-B*1516 (B63) (human). The description is as above.
The target of a further test is HLA-B*2708 (B27) (human) (UniProt P01889). Described as above.
The next test has as its target HLA-B*3901 (B39) (human) (UniProt P01889). The description is as above.
The target of another test is HLA-B*4801 (B48) (human) (UniProt P01889). Described as above.
Another test concerns the target HLA-B*5102 (B51) (human). Described as above.
In the next test the target is HLA-B*5703 (B57) (human). The description is as above.
The target of a further test is HLA-B*5901 (B59) (human). The description is as above.
Another test addresses HLA-Cw*0304 (human). The test is described as above.
For test [3], the target named is HLA-Cw*0401 (Cw4) (human). Described as above.
The target of test [4] is HLA-Cw*0801 (Cw8) (human) (UniProt P10321). Described as above.
For test [5], the target named is HLA-Cw*1203 (Cw12) (human) (UniProt P10321). Described as above.
Test [6] deals with HLA-Cw*1502 (Cw15) (human). The test is described as above.
Test [7] addresses HLA-Cw*1701 (Cw17) (human). The description is as above.
The target of test [8] is HLA-Cw*1802 (Cw18) (human) (UniProt P10321). The description is as above.

Some results are limits rather than exact numbers.

In the case of “murine monoclonal antibody (MAb) MEM-E/02”, the MFI stood at 5330 MFI in the test with HLA-B*1401 (human); 7010 MFI with HLA-B*4006 (human); 3670 MFI with HLA-B*4501 (human); 2830 MFI in the test with HLA-B*5801 (human) [1]; 3020 MFI with HLA-Cw*0202 (human); 5830 MFI with HLA-Cw*0501 (human). Moreover, the MFI was 2270 MFI with HLA-Cw*1701 (human); 8830 MFI in the test with HLA-Cw*1802 (human); 301 MFI in the test with HLA-B*1402 (human); 350 MFI with HLA-B*1502 (human); 388 MFI with HLA-B*1511 (human); 272 MFI in the test with HLA-B*2708 (human). Moreover, the MFI in the test with HLA-B*5801 (human) [2] turned out to be 485 MFI; with HLA-Cw*0302 (human) it was 335 MFI; with HLA-Cw*0702 (human), 295 MFI; with HLA-Cw*1402 (human) it was 432 MFI; with HLA-Cw*1502 (human) it was 317 MFI.

As to murine monoclonal antibody MAb MEM-E/02, the % inhibition (usually the change of the read-out against control, counted positive when it falls) turned out to be 36% in the test with HLA-A*2403 (A24) (human); 36% with HLA-A*2501 (A25) (human); 16% in the test with HLA-B*3901 (B39) (human); 16% with HLA-B*4801 (B48) (human); 8% with HLA-B*5901 (B59) (human). The MFI was less than 500 MFI with HLA-A*2901 (A29) (human); less than 500 MFI in the test with HLA-A*3002 (A30) (human); less than 500 MFI with HLA-A*3201 (A32) (human); 3170 MFI with HLA-A*3301 (A33) (human); less than 500 MFI with HLA-B*0801 (B8) (human); less than 500 MFI in the test with HLA-B*1301 (B13) (human). The MFI with HLA-B*1513 (B77) (human) was less than 500 MFI; in the test with HLA-B*1516 (B63) (human), 1840 MFI; in the test with HLA-B*2708 (B27) (human) it was 2430 MFI; in the test with HLA-B*3901 (B39) (human), 1480 MFI; in the test with HLA-B*5102 (B51) (human) it was 2520 MFI; in the test with HLA-B*5703 (B57) (human), 917 MFI. The MFI with HLA-B*5901 (B59) (human) was 848 MFI; in the test with HLA-Cw*0304 (human), less than 500 MFI; in [3], less than 500 MFI; in [4] it was less than 500 MFI; in test [5] it was less than 500 MFI; in [6], less than 500 MFI. Also, the MFI in test [7] and in test [8] was less than 500 MFI throughout.
